Experimental data published in patent US20160032257A1, “AGENT AND METHOD FOR MODIFYING THE 5' CAP OF RNA” (UNIVERSITÄT HAMBURG, priority 2012, published 2016).

B1: GlaTgs2-V34A: GlaTgs2 variant, valine at position 34 replaced by alanine, SEQ ID NO: 4 (protein, listed as Giardia lamblia)
chain: MSTWLLDSKCVERMKWLFSDLPEEKRVMIKMNEAAFFSVTPAVYADEVARMMRTVLALLGKPPYAVIDGTACVGGDTRLLAKHFDMTVAIERDPETYALLQDNLTTWGVDAKTISGDTAALIPQFWTLIGAVATFSLYLDPPWGGVDYRSQTDIQLTLGSLAVEDVVNRAFEAHLSMKLAVLKLPRNYNCGYLFRKLGKHEVFRITQGNFFVFFVARRGSRVKEHGRTAMLQLRKAREEAKARSEETKEDGETRGSGE
B2: GlaTgs2-V34A, D76T: GlaTgs2 variant with exchanges V34A and D76T, SEQ ID NO: 8 (protein, listed as Giardia lamblia)
chain: MSTWLLDSKCVERMKWLFSDLPEEKRVMIKMNEAAFFSVTPAVYADEVARMMRTVLALLGKPPYAVIDGTACVGGLTRLLAKHFDMTVAIERDPETYALLQDNLTTWGVDAKTISGDTAALIPQFWTLIGAVATFSLYLDPPWGGVDYRSQTDIQLTLGSLAVEDVVNRAFEAHLSMKLAVLKLPRNYNCGYLFRKLGKHEVFRITQGNFFVFFVARRGSRVKEHGRTAMLQLRKAREEAKARSEETKEDGETRGSGE
B3: GlaTgs2-WT: wild type trimethylguanosine synthase 2 from Giardia lamblia, 258 amino acids, SEQ ID NO: 1 (protein, listed as Giardia lamblia)
chain: MSTWLLDSKCVERMKWLFSDLPEEKRVMIKMNEVAFFSVTPAVYADEVARMMRTVLALLGKPPYAVIDGTACVGGDTRLLAKHFDMTVAIERDPETYALLQDNLTTWGVDAKTISGDTAALIPQFWTLIGAVATFSLYLDPPWGGVDYRSQTDIQLTLGSLAVEDVVNRAFEAHLSMKLAVLKLPRNYNCGYLFRKLGKHEVFRITQGNFFVFFVARRGSRVKEHGRTAMLQLRKAREEAKARSEETKEDGETRGSGE
B4: GlaTgs2-V34G: GlaTgs2 variant, valine at position 34 replaced by glycine, SEQ ID NO: 5 (protein, listed as Giardia lamblia)
chain: MSTWLLDSKCVERMKWLFSDLPEEKRVMIKMNEGAFFSVTPAVYADEVARMMRTVLALLGKPPYAVIDGTACVGGDTRLLAKHFDMTVAIERDPETYALLQDNLTTWGVDAKTISGDTAALIPQFWTLIGAVATFSLYLDPPWGGVDYRSQTDIQLTLGSLAVEDVVNRAFEAHLSMKLAVLKLPRNYNCGYLFRKLGKHEVFRITQGNFFVFFVARRGSRVKEHGRTAMLQLRKAREEAKARSEETKEDGETRGSGE
B5: GlaTgs2-V34A, D76V: GlaTgs2 variant with exchanges V34A and D76V, SEQ ID NO: 9 (protein, listed as Giardia lamblia)
chain: MSTWLLDSKCVERMKWLFSDLPEEKRVMIKMNEAAFFSVTPAVYADEVARMMRTVLALLGKPPYAVIDGTACVGGVTRLLAKHFDMTVAIERDPETYALLQDNLTTWGVDAKTISGDTAALIPQFWTLIGAVATFSLYLDPPWGGVDYRSQTDIQLTLGSLAVEDVVNRAFEAHLSMKLAVLKLPRNYNCGYLFRKLGKHEVFRITQGNFFVFFVARRGSRVKEHGRTAMLQLRKAREEAKARSEETKEDGETRGSGE
B6: GlaTgs2-V34M: GlaTgs2 variant, valine at position 34 replaced by methionine, SEQ ID NO: 6 (protein, listed as Giardia lamblia)
chain: MSTWLLDSKCVERMKWLFSDLPEEKRVMIKMNEMAFFSVTPAVYADEVARMMRTVLALLGKPPYAVIDGTACVGGDTRLLAKHFDMTVAIERDPETYALLQDNLTTWGVDAKTISGDTAALIPQFWTLIGAVATFSLYLDPPWGGVDYRSQTDIQLTLGSLAVEDVVNRAFEAHLSMKLAVLKLPRNYNCGYLFRKLGKHEVFRITQGNFFVFFVARRGSRVKEHGRTAMLQLRKAREEAKARSEETKEDGETRGSGE
B7: GlaTgs2-V34A, R92A: GlaTgs2 variant with exchanges V34A and R92A, SEQ ID NO: 10 (protein, listed as Giardia lamblia)
chain: MSTWLLDSKCVERMKWLFSDLPEEKRVMIKMNEAAFFSVTPAVYADEVARMMRTVLALLGKPPYAVIDGTACVGGDTRLLAKHFDMTVAIEADPETYALLQDNLTTWGVDAKTISGDTAALIPQFWTLIGAVATFSLYLDPPWGGVDYRSQTDIQLTLGSLAVEDVVNRAFEAHLSMKLAVLKLPRNYNCGYLFRKLGKHEVFRITQGNFFVFFVARRGSRVKEHGRTAMLQLRKAREEAKARSEETKEDGETRGSGE
B8: GlaTgs2-V34A, D76L: GlaTgs2 variant with exchanges V34A and D76L, SEQ ID NO: 7 (protein, listed as Giardia lamblia)
chain: MSTWLLDSKCVERMKWLFSDLPEEKRVMIKMNEAAFFSVTPAVYADEVARMMRTVLALLGKPPYAVIDGTACVGGTTRLLAKHFDMTVAIERDPETYALLQDNLTTWGVDAKTISGDTAALIPQFWTLIGAVATFSLYLDPPWGGVDYRSQTDIQLTLGSLAVEDVVNRAFEAHLSMKLAVLKLPRNYNCGYLFRKLGKHEVFRITQGNFFVFFVARRGSRVKEHGRTAMLQLRKAREEAKARSEETKEDGETRGSGE

Key:
[1] = molecular target: T1, Giardia lamblia trimethylguanosine synthase 2 (GlaTgs2) variant GlaTgs2-V34A (V34A), SEQ ID NO: 4 (Giardia duodenalis, UniProt A8BW33, V34A); assay: Enzymatic parameters of GlaTgs2-V34A with respect to AdoPropen and AdoMet (HPLC-coupled activity assay); assay type: biochemical
T1 construct: HPLC-coupled cap N2 methyl/alkyl transfer assay with m7GpppA, helper enzymes MTAN and LuxS
Experimental: (§1) The transfer of the propenyl (AdoPropen), pentenynyl (AdoEnYn) and benzyl (AdoBenzyl) residues carried by the synthetically produced AdoMet analogues onto the N2 atom of the guanosine of m^7GpppA (A=adenine) enzymatically catalysed by the WT-GlaTgs2 (SEQ ID NO: 1) and the proteins of the invention in accordance with SEQ ID NOs: 4-10 was investigated with the aid of a HPLC-coupled activity assay.
(§2) Reaction buffer 2: 50 mM Tris; 10 mM MgCl2; 100 mM NH4OAc; pH 8.4
(§3) MTAN stands for 5′-methylthioadenosine/S-adenosylhomocysteine nucleosidase. LuxS stands for S-ribosylhomocysteine lyase.
(§4) The quantities were adjusted in proportion for larger samples of 10 or 20 μL. The quantity of AdoMet analogue used was matched such that the area of the peak in the chromatogram for a diastereoisomer of the AdoMet analogue corresponded to the area of the signal caused by m^7GpppA. The reaction was in general stopped directly after starting the reaction (t0) and after three hours at 37° C. (t180) and examined using analytical HPLC as well as MALDI-TOF.

[2] = test system: C=CC[S+](CCC(N)C(=O)O)C[C@H]1O[C@@H](n2cnc3c(N)ncnc32)C(O)[C@H]1O; assay: Enzymatic parameters of GlaTgs2-WT with respect to AdoPropen (HPLC-coupled activity assay); assay type: biochemical, Giardia lamblia; details: other: with respect to AdoPropen, pH 8.4, 37.0 °C
Experimental: as §1, §2, §3, §4

[3] = test system: m^7GpppA; assay: HPLC-coupled activity assay: enzymatic transfer of the residue of an AdoMet analogue onto N2 of the guanosine of m^7GpppA; assay type: biochemical; details: for m^7GpppA transformed: same quantity of enzyme; for TTN: Total Turnover Number
Experimental: as §1, §2, §3, §4

[4] = Thermostability (T50, 15 min incubation, residual activity, Boltzmann fit); assay type: physicochemical; details: for T50 (thermostability): 15 minutes incubation, Table 4; for T50 (15 min): temperature at which enzyme loses 50% of its activity after 15 minutes incubation, Table 3
Experimental: The stability of a protein characterizes its ability to tolerate denaturing influences, such as an increase in the environmental temperature, within certain limits and to maintain the native conformation. The T50 value can be used as a measure of the thermostability.
is the temperature at which an enzyme loses 50% of its activity after 15 minutes incubation. In order to determine the T50 value, the protein to be analysed is heated for 15 minutes to different temperatures in a thermocycler while a sample of the protein is incubated on ice. Next, activity tests are carried out with the previously heated proteins. […] After normalizing the values,
can be obtained using a Boltzmann fit and “Origin” software.

[5] = with respect to AdoPropen, Table 3

| Molecule | TTN ([3]; AdoPropen, Table 2) | T50 (thermostability) [4] | also measured |
| --- | --- | --- | --- |
| C=CC[S+](CCC(N)C(=O)O)C[C@H]1O[C@@H](n2cnc3c(N)ncnc32)C(O)C1O (stereo in doubt) [AdoPropen, 5′-[(S)-[(3S)-3-amino-3-carboxypropyl]prop-2-enylsulphonio]-5′-deoxyadenosine] | – | – | affinity for AdoPropen ([1]; compared with the wild type enzyme GlaTgs2-WT): higher affinity; kcat ([1]; with respect to AdoPropen, GlaTgs2-V34A): 0.003 ± 0.0013 s⁻¹ |
| Giardia lamblia trimethylguanosine synthase 2 (GlaTgs2-WT), wild type, SEQ ID NO: 1 (Giardia lamblia ATCC 50803) | – | – | Km [2]: 151 ± 19 μM μM; kcat [2]: 0.0015 ± 0.0013 s⁻¹ |
| B1 | 10 ± 2 | 40.4 ± 0.2 | transfer of benzyl ([3]; AdoBenzyl as AdoMet analogue): a transfer of benzyl was observed; m^7GpppA transformed ([3]; AdoEnYn): 10%; m^7GpppA transformed ([3]; AdoPropen): 95%; TTN [3, 5]: 10; T50 (15 min) [4]: 40.4 ± 0.2 °C |
| B2 | 2 | – | – |
| B3 | 3 ± 2 | 39.9 ± 0.2 | TTN [3, 5]: 3; T50 (15 min) [4]: 39.9 ± 0.2 °C |
| B4 | 5 | 44.8 | – |
| B5 | 1 | – | – |
| B6 | 6 | 49.0 | – |
| B7 | 8 | – | – |
| B8 | 1 | – | – |
